Results on six molecules are retold here after US20250051444A1 (SUZHOU ZELGEN BIOPHARMACEUTICALS, published 2025).

T1: human LRRC15 (leucine-rich repeat containing protein 15) (human, UniProt Q8TF66 22-581)
T1 construct: whole, on cells; also called huLRRC15
T1 sequence (looked up): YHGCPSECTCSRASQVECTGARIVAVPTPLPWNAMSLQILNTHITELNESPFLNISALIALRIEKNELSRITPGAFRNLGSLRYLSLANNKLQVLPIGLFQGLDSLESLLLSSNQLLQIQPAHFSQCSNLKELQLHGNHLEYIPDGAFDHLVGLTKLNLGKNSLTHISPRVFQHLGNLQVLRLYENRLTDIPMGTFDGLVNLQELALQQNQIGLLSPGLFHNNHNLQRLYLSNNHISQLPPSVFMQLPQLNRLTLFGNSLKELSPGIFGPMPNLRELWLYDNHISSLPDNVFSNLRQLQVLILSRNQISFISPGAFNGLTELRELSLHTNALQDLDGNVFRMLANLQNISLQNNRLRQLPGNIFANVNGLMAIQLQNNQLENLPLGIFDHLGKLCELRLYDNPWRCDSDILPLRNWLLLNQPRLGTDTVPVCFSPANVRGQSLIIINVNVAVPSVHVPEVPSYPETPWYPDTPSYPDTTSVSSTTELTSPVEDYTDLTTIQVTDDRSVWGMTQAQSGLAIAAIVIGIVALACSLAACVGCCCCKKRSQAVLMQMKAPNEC

B1: 315-L06C08 (bispecific antibody)
chain: not shown
heavy: QVQLVESGGGLVKPGGSLRLSCAASGFTFSDYYMSWIRQAPGKGLEWVSDISVSSSYTNYADSVKGRFTISRDNAKNSLYLQMNSLRAEDTAVYYCARLGGYRSFFSTDDGDSLDYWGQGTLVTVSSASTKGPSVFPLAPSSKSTSGGTAALGCLVKDYFPEPVTVSWNSGALTSGVHTFPAVLQSSGLYSLSSVVTVPSSSLGTQTYICNVNHKPSNTKVDKRVEPKSCDKTHTCPPCPAPEFEGGPSVFLFPPKPKDTLMISRTPEVTCVVVDVSHEDPEVKFNWYVDGVEVHNAKTKPREEQYNSTYRVVSVLTVLHQDWLNGKEYKCKVSNKALPASIEKTISKAKGQPREPQVCTLPPSRDELTKNQVSLTCLVEGFYPSDIAVEWESNGQPENNYKTTPPVLDSDGSFFLYSDLTVDKSRWQQGNVFSCSVMHEALHNHYTQESLSLSPGK
light: not shown
notes: heterodimeric IgG1 Fc; also called bispecific antibody of structure c (scFv-scFv-Fc x Fab-Fc)
B2: L15-08 (antibody, V domains shown)
VH: QVQLVESGGGLVKPGGSLRLSCAASGFTFSDYYMSWIRQAPGKGLEWVSDISVSSSYTNYADSVKGRFTISRDNAKNSLYLQMNSLRAEDTAVYYCARLGGYRSFFSTDDGDSLDYWGQGTLVTVSS
VL: not shown
notes: From phage library screening
B3: L15-07 (antibody, V domains shown)
VH: QVQLVQSGAEVKKPGSSVKVSCKASGGTFSTYAISWVRQAPGQGLEWMGGITPMFGTPNYAQKFQGRVTITADESTSTAYMELSSLRSEDTAVYYCARGDWYDYHFDYWGQGTLVTVSS
VL: QSALTQPASVSGSPGQSITISCTGTSSDVGGYNYVSWYQQHPGKAPKLMIYEVSNRPSGVSNRFSGSKSGNTASLTISGLQAEDEADYYCQSYANRDNFVVFGGGTKLTVL
notes: From phage library screening
B4: L15-06 (antibody, V domains shown)
VH: EVQLLESGGGLVQPGGSLRLSCAASGFTFSSYYMSWVRQAPGKGLEWVADISVSGSYTNYADSVKGRFTISRDNSKNTLYLQMNSLRAEDTAVYYCARIGSYRSFFSTDDGDSLDYWGQGTLVTVSS
VL: not shown
notes: From phage library screening; tested as a 'monoclonal antibody molecule'; also called L15-L06
B5: 153-L06C (bispecific antibody)
chain 1: not shown
chain 2: EPKSCDKTHTCPPCPAPEFEGGPSVFLFPPKPKDTLMISRTPEVTCVVVDVSHEDPEVKFNWYVDGVEVHNAKTKPREEQYNSTYRVVSVLTVLHQDWLNGKEYKCKVSNKALPASIEKTISKAKGQPREPQVCTLPPSRDELTKNQVSLTCLVEGFYPSDIAVEWESNGQPENNYKTTPPVLDSDGSFFLYSDLTVDKSRWQQGNVFSCSVMHEALHNHYTQESLSLSPGK
notes: Targets LRRC15 and CD3; heterodimeric IgG1 Fc; also called bispecific antibody of structure b (scFv-scFv-Fc x Fc)
B6: L15-03 (antibody, V domains shown)
VH: QVQLVQSGAEVKKPGSSVKVSCKASGGTFSSYTISWVRQAPGQGLEWMGGIIPMFGTANYAQKFQGRVTITADESTSTAYMELSSLRSEDTAVYYCARGVALLATDFDYWGQGTLVTVSS
VL: QSALTQPASVSGSPGQSITISCTGTSSDVGGYNYVSWYQQHPGKAPKLMIYEVSNRPSGVSNRFSGSKSGNTASLTISGLQAEDEADYYCQSWTHDNSVVFGGGTKLTVL
notes: From phage library screening; also called anti-LRRC15 antibody L15-03

This experiment concerns the target T1, human LRRC15 (leucine-rich repeat …). Put plainly: FACS on CHO cells expressing human LRRC15. On the procedure:
Furthermore, the binding ability of the LRRC15 antibodies of the present invention to CHO cells expressing LRRC15 was tested. Therein, CHO cells expressing LRRC15 were prepared by the following method: the full-length sequence gene fragments of human, mouse and monkey LRRC15 were obtained by whole gene synthesis, and then these fragments were inserted into the backbone of the stable expression vector to obtain the expression plasmid vectors. These three plasmids were transfected into CHO cells, and monoclonal cell lines were screened under the pressure of puromycin, which are the flow cytometry cell lines used in this example.
CHO cells expressing LRRC15 were washed with FACS buffer (0.5% BSA in PBS) and resuspended at 2E6 cells/ml with the gradient diluted LRRC15 antibodies. The resuspension was incubated on ice for 30 minutes, then washed twice with FACS buffer and incubated with the second antibody on ice for 30 minutes. After washing the resuspended cells with FACS buffer again, the cells were detected by flow cytometry. Based on the measured mean fluorescence intensity, the half maximal binding concentration (EC50) of each antibody was determined.
In the case of B1, the binding result was “binds”.
For B2, the binding result is “binds”.
With B3, the binding result is recorded as “binds”.
The entry for B4 is “binds”; for B5 it is “binds”.
The result for B6 reads “binds”.
